Experimental findings from paper doi:10.1101/2025.11.03.686288 are described below.

By Kd is commonly meant the free concentration of one partner at which half of the binding sites on the other are occupied at equilibrium, for simple one-to-one binding. Higher therefore signals weaker binding. Broadly, the IC50 is the concentration that inhibits the measured activity by half.

The target in test [1] is N-terminal GST-tagged PEX38 full-length (T. brucei). Nature of the test: AlphaScreen or HTRF.
Test [2] deals with C-terminal His6-tagged PEX19 full-length (T. brucei). Nature of the test: AlphaScreen or HTRF. On the technique in general: Alpha assays give light when donor and acceptor beads are brought close together.
Test [3] has as its target TbPEX38 (65-134) (T. brucei). Briefly: ITC. (In ITC the heat of successive injections is recorded.)

On to “C-terminal His6-tagged PEX19 N50 (domain or fragment)”, for which the fold weaker interaction with PEX38^FL than PEX19^FL (AlphaScreen signal) in test [1] came to 10 fold. GST-PEX3Δ1-44 (domain or fragment) registered a fold higher affinity for PEX19 than PEX38 in test [2] of 30 fold. With “TbPEX19 (1-50-SGGY) (domain or fragment)”, in test [3], the Kd was determined as 3000 nM.

With TbPEX38 (65-134) (domain or fragment), the IC50 in test [2] was 446 nM.

“untagged PEX38 full-length (natural protein)” registered an IC50 in test [2] of 950 nM.
